From the nanobody polyreactivity screen of Harvey et al. (2022)

Assay: yeast display, Sf9 membrane polyspecificity reagent, FACS + sequencing; frameworks hold sequencing errors
Procedure, shortened: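 In a synthetic yeast display library (Saccharomyces cerevisiae BJ5465), nanobody expression was induced with galactose for 36–48 hours. FACS gates were set low and high (top ~1%) using anti-HA fluorescence for expression and streptavidin fluorescence for binding of the Sf9 membrane reagent. Each polyreactivity label is drawn from the gate of origin.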

Row | Sequence | polyreactivity (PSR sort gate)
1 | QVQLVESGGGLVQAGGSLRLSCAASGRTFGDYAMGWYRQAPGKERELVAAITIGGSTYYADSVKGRFTISRDNAKNTVYLQMNSLKPEDTAVYYCAATTYSIPSRYDSWGQGTQVNVSS | low polyreactivity
2 | QVQLVESGGGLVQAGGSLRLSCAASGGIFIFYAMGWYRQAPGKERELVAAISNVSSTNYADSVKGRFTISRDNAKNTVYLQMNSLKPEDTAVYYCNAVGVPSEYYSWGQGTQVTVSS | low polyreactivity
3 | QVQLVESGGGLVQAGGSLRLSCAASGRTFPVYAMGWYRQAPGKERELVASITGRGGSTYYADSVKGRFTISRDNAKNTVYLQMNSLKPEDTAVYYCARDWYKTYTGYYWGQGTQVTVSS | high polyreactivity
4 | QVQLVESGGGLVQAGGSLRLSCAASGSIFVTNAMAWYSQAPGKERELVAAISWRGGSTYYADSVKGRFTISRDNAKNTVYLQMNSLKPEDTAVYYCNTYHPYWGSGFDYWGQGTEVTVSS | low polyreactivity
5 | QVQLVESGGGLVQAGGSLRLSCAASGRIFSFNAMGWYRQAPGKERELVATIRTDGTTNYADSVKGRFTISRDNAKNTVYLQMNSLKPEDTAVYYCAANRKRFAFGYWGQGTQVTVSS | high polyreactivity
6 | QVQLVESGGGLVQAGGSLRLSCAASGSILDGYVMGWYRQAPGKDRELVAAISTNSDRTYYADSVKGRFTISRDNAKNTVDLQMNSLKPEDTAVYYCNARKLRRAGFPYDYWGQGTQVTVSS | high polyreactivity
7 | QVQLVESGGGLVQAGGSLRLSCAASGYTFPLYAMGWYRQAPGKERELVATISSSGSRTYYADSVKGRFTISRDNAKNTVYLQMNSLKPEDTAVYYCAARYRAYVKLTSYDWGQGTQVTVSS | high polyreactivity
8 | QDQLVESGGGLVQAGGSLRLSCAASGRTFAYNAMGWYRQAPGKERELVADITSGGSTYYADSVKGRFTIARDNAKNKVYLQMNSLKPEDTAVYYCAAYTQFWYWDYNYWGQGTQVTVSS | high polyreactivity
9 | QVQLVESGGGLDQAGGRLRLSCAASGSTFSYYAKSWYIQAPGKERELVARITWRGGSTNYADSVKGRFTISRDNAKNTVYLQMNSLKPEDTAVYYCATKLTSRVPFDYWGQGTQVTVSS | high polyreactivity
10 | QVQLVESGGGLVQAGGSLRLSCAASGSTFKAYAMGWYRQAPGKERELVAAITYNGGSTYYADSVKGRFTISRDNEKNTVYLQMNSLKPEDTAVYYCAKRETGRRDPRRSTQYRYEYWGQGTQVTVSS | low polyreactivity
11 | QVQLVESGGGLVQAGGRLRLSCASTGLTLHGNAMGWYRQAPGKERELVATISSSGGSTFYADSVKGRFTISRDNAKNTDYLQMNSLKPEDTAVYYCNADAPYSDDYYVRFDYWGQGTQVTVSS | low polyreactivity
12 | QVQLVESGGGLVQAGGSLRLSCAASGRIFYGYTMGWYREAPGIERELVASITIRGSRTYYADSVKGRFTISRDNAKNTVYLQMTSLKPEDTAVYYCAADFVPARTVHRYDYWGQGTQVTVSS | low polyreactivity
13 | QVQLVESGGGLVQAGGSLRLSCAASGSTFYGYGMGWYRQAPGKERELVAAITGSGDTTYYADSVKGRFTISRDNAKNTVYLQMNSLKPEDTAVYYCAADLTVRYDYWGQGTQVTVSS | low polyreactivity
14 | QVQLVESGGGLLQAGGSLRLSCAASGIIFRWYAMGWYSQAPGKERELVATITRSGGSTYYADSVKGRFTISRDNAKKTVYLLMKSLKPEDTAVFYCATGRYPSGRPTRNYDSVYWGHGTQVTVSS | high polyreactivity
15 | QVQLVESGGGLVQAGGSLRLSCAASGSTFTPNAMGWYRQVPGKERELVASITIGGSTYADSVKGRFTISRDNAKNTVYLQMNSLKPEDTAVYYCNADWNWYPFLYSRMDYWGQGTQVTVSS | low polyreactivity
16 | QVQLVESGGGLVQAGGSLRLSCAASGRTFGYNAMGWYRQAPGKERELVATISWGGGSTYYADSVKGRFTISRDNAKNTVYLQMNSLKPEDTAVYYCNKVHYGRRHSYSGAIYGEDYWGQGTQVTVSS | high polyreactivity
17 | QVQLVESGGGLVQAGGSLRLSCAASGRTFYRNVMGWYRQAPGKVRELVAVITSGGRTNYADSVKGRFTISRDNAKNTVYLQMNSLKPEDTAVYSCNTALSSRSNKMYYWGQGTQVTVSS | high polyreactivity
18 | QVQLVESGGGLVQAGGSLRLSCAASGSTLSIYAMGWYRQAPGKERELVATIRWSAGRTSYADSVKGRFTISRDNAMNTVYLQMNSLKPEDTAVYSCNAVRYRYYFYWTGKSYDYWGQGTQVTVSS | high polyreactivity
19 | QVQLVQSGGGLVQAGGSLRLSCAASGIIFYVYAMGWYRQAPGKERELVAAISRSGGRTYYADSVKGRFTISRDNPKNTVYLQMNSLKPEDTAVYYCAAVYPRQVSQVWRDDYWGQGTQVTVSS | high polyreactivity
20 | QVQLVESGGGLVQAGGSLRLSCAASGRIFDHNAMGWYRQAPGKERELVAAITWSGGRTYYADSVKGRFTISRDNAKNTVYLQMNSLKPEDTAVYYCNAPVSRRGGNYWGLGTQVTVSS | high polyreactivity
21 | QVQLVDSGGGLVQAGGSLRLSCAASGSIFVKYAMGCYRQAPGKERELVAAISGSGGSTYYADSVKGRFTISRDNAKNTVSLQMNSLKPEDTAVYYCAADDYFYSGRYGFEFWGQGTQVTVSS | low polyreactivity
22 | QVQLVESGGGLVQAGGSLRLSCAASGSIFGIYTMGWYRQAPGKERELVAAITSVGSTNYADSVKGRFTISRDNAKNTVYLQMNSLKPEDTAGYYCARASAWYVTLVGKYTKYDYWGQGTQVTVSS | low polyreactivity

Row | Sequence | polyreactivity (PSR sort gate)
23 | QVQLVESGGGLVQAGGSLRLSCAASGRIFYDYTMVWYRQAPGKERDLVATITSGGNTNYADSVKGRFTISRDNAKNTVYLPMNSLKPVDTAVYYCAPSYSAKRVKTGRVWYGYWGQGTQVTVSS | low polyreactivity
24 | QVQLVASGGALVQAGGSLRLSCAASGFIFDYYAMGRYRPAPGKERELVAAITSRSGSTYYADSVKGRFTISRDNAKNTVYLQMNSLKPEDTAVYYCARRFKYGSTAWRFYYWGQGTQVTVSS | high polyreactivity
25 | QVQLEESGGGLVQAGGSLRLSCAASGSMFTRYAKGWYRQAPWKERELVAAISTSGGSTYYADSVKGRFTISRDNAKNTVYLQMTSLKPEDTAVYYCAADDQRRSGYYSWGQGTQVTVSS | high polyreactivity
26 | QVQLVESGGVLVQAGGSLPLSCAASGFTFSRYAMGWYRQAPGKEREFVAGISRSGGSTYYADSVKGRFTNTRDNAMNTVSLQMNSLKPEDTAVYYWAKVYPATEAGDYWGQGTQVTVSS | high polyreactivity
27 | QVQLVESGGGLVQAGGSLRLSSAASGSTFDYYAMGWYRQAPGKERELVDGITYSGGTTYYADSVKGRFTISRDNAKNTVYLQMNSLKPEDTAVYYCNAVYDRNFYYWGQGTQVTVSS | high polyreactivity
28 | QVQLVESGGGLVQAGGSLRLICAASGGTFQSNAMGWYRQAPGKERELVASITSRGSSTYYADSVKGRFTISRDNAKNTVYLLMNSLKPEDTAVYYCAKGRSWQIYYKGGIKGGYWGQGTQVTVSS | low polyreactivity
29 | QVQIVESGGGLVQAGGSLRLSCAASGRIFCGNVMGWYRQAPGKERELVAAISGRGGRTYYAHSVKGRFTISRDNAKNTVYLQMNSLKPEDTAVYYCAASTGEEISGKRYNYWGQGTQVTVSS | high polyreactivity
30 | QVQLVESGGGLVQAGGSLRLSCAASGFTSLIYAMGWSRQAPGKESELVATITWGGGSTYADSVKGRFTISRDNAKNTVYLQMNSLKPEDTAVYYCNADIYDSWDYATVYSDRYDYWGQGTQVTVSS | low polyreactivity
31 | QVQLVESGGGLVQAGGSLRLSCAASGRTFSTNAMGWYIQAPGKEREFVAAITGSGGSTYYADSVKGRFTISRDNAKNTVYLQMNSLKPEDTAVYYCAADRPGSRFIDVDYWGQGTQVTVSS | high polyreactivity
32 | QVQLVESGGGLVQAGGSLRLSCAASGIIFPSYVMGWYRQAPGKERELVAAISSRGTSTYYADSVKGRFTISRDHAKNTVYLQMNSLKPEDTAVYYCAAKSFGTTTRSEYDYWGQGTQVTVSS | high polyreactivity
33 | QVQLVESGVGLVQAGGSLRLSCAASGSIFQSYDMGWYRQAPGKERELVAAISWSGSTTYYADSVKGRFTISRDNAKNTVYLQMNSLKPEDTAVYYCAVDSNPPDWWAVIYGFWGQGTQVTVSS | low polyreactivity
34 | QVQLVESGGGLVQAGGSLRLSCAASGRTFEGNAMGWYRQAPGKERELVAAISGSGGRTYYADSVKGRFTISRDNAKNTVYLQMNSLKPEDTAVYYAKLYSVYNPWRFNYWGQGTQVTVSS | high polyreactivity
35 | QDQLVESGGGLVQAGGSLRLSCAASGRIFTGNVMGWYRQAPGKERELVAAITYRGGSTYYADSVKGRFTISRDNAKNTVFLQMNSLKPEDTAVYYCNTGWDPYGYDYWGQGTQVTVSS | low polyreactivity
36 | QVQLVESGGGLVQAGGILRLSCAASGFIFALNAMGWYRQAPGKERELVATIDSTSGSTYYADSVKGRFTISRDNAKNTVYLQMNSLKPEDTAVYYCAVVHAQSAPMDYWGQGTQVTVSS | low polyreactivity
37 | QVQLVESGGGLVQEGGSLRLRCAASGGIFASNAMRWYRQAPGKERELLATITRGGSTNYADSVKGRFTISRDNAKNTVYLQMNSLKPEDTAVYYCAARFYSRAFWPAYYYWGQGTQVTVSS | high polyreactivity
38 | QVQLVESGGGLVQAGGSLRLTCAASGRTFRVYAMGWYRQAPGKERELVATITSSGGSTYYADSVKGRFTISRDNAKKTVYLQMNSLKREDTAVYYCNVSVYYNYDSSYDYWGQGTQVTVSS | low polyreactivity
39 | QVQLVESGGGLVQAGGSLRLICAASGLIFDYYAMGWYRQSPGKDRELVAAITSSSGITYYADSVKGRFTISRDNAKNTVSLQMNSLKPEDTAVYYCNADTRTTTRRFNPYDYWGQGTQVTVSS | low polyreactivity
40 | QVQLVESGGGLVQAGGSLRLRCAASGIIFTGYALGWYRQAPGKESELVAAISRSGGGTYYADSVKARFTISRDNAKNTVYLQINSLKPEDTAVYYCNRLRIAASYWQAYDYWGQGTQVTLSS | high polyreactivity
41 | QVQLVESGGGLVQAGGSLRLSCAASGNTFRFYTMGWYRQAPGKERELVAAINSSGRTNYADSVKGRFTISRDNAKNTVYLQMNSLIPEDTAVYYCAADQQRSIDAPYGYWGQGTQVTVSS | low polyreactivity
42 | QVQLVESGGGLVQAGGSLRLSCAASGLIFDDYDMGWYRQAPGKERELVAAISLSGGSTFYADSVKGRFTISRDNAKNTVYLLMNSLKPEDTAVYYCAAQARRAYVQTRKYYWGQGTQVTVSS | high polyreactivity
43 | QVQLVESGGGLVQAGGSLRLSCAASGRTFISYAMGWYRQAPGKERELVAGISRGGSTYYADSVKGRFTISRDNAKNTVYLQMNSLKPEDTAVYYCAARRWISSHSYKYGYWGQGTQVTVSS | high polyreactivity
